# Assay results: patent US20140127724A1
# Where “and” joins values, the source holds several entries; their conditions need not be identical. Equal entries are not always repeated.
# Legend:
# [1] = target: mouse fragile X mental retardation protein (FMRP) (mouse) (UniProt P35922); test: Luminex capture immunoassay, 5 ug mouse brain extract
# [2] = target: mouse fragile X mental retardation protein (FMRP) (mouse) (UniProt P35922); test: Luminex capture immunoassay, 10 ug mouse brain extract
# [3] = target: mouse fragile X mental retardation protein (FMRP) (mouse) (UniProt P35922); test: Luminex capture immunoassay, 20 ug mouse brain extract
# [4] = target: mouse fragile X mental retardation protein (FMRP) (mouse) (UniProt P35922); test: Luminex capture immunoassay, 40 ug mouse brain extract
# [5] = target: mouse fragile X mental retardation protein (FMRP) (mouse) (UniProt P35922); test: Luminex capture immunoassay, 80 ug mouse brain extract
# [6] = target: mouse fragile X mental retardation protein (FMRP) (mouse) (UniProt P35922); test: Luminex capture immunoassay, 2.5 ug mouse brain extract
# [7] = target: mouse fragile X mental retardation protein (FMRP) (mouse) (UniProt P35922); test: Luminex capture immunoassay, 1.25 ug mouse brain extract
# [8] = target: human fragile X mental retardation protein (FMRP) (human) (UniProt Q06787); test: Luminex capture immunoassay, 5 ug human lymphoblastoid control extract
# [9] = target: human fragile X mental retardation protein (FMRP) (human) (UniProt Q06787); test: Luminex capture immunoassay, 10 ug human lymphoblastoid control extract
# [10] = target: human fragile X mental retardation protein (FMRP) (human) (UniProt Q06787); test: Luminex capture immunoassay, 20 ug human lymphoblastoid control extract
# [11] = target: human fragile X mental retardation protein (FMRP) (human) (UniProt Q06787); test: Luminex capture immunoassay, 40 ug human lymphoblastoid control extract
# [12] = target: human fragile X mental retardation protein (FMRP) (human) (UniProt Q06787); test: Luminex capture immunoassay, 80 ug human lymphoblastoid control extract
# [13] = target: human fragile X mental retardation protein (FMRP) (human) (UniProt Q06787); test: Luminex capture immunoassay, 2.5 ug human lymphoblastoid control extract
# [14] = target: human fragile X mental retardation protein (FMRP) (human) (UniProt Q06787); test: Luminex capture immunoassay, 1.25 ug human lymphoblastoid control extract
substance,measurement,setting,value
anti-PrP mAb 3F4 (antibody),phycoerythrin fluorescence (MFI),[1],7 MFI and 8 MFI
same,phycoerythrin fluorescence (MFI),[2],11 MFI and 10 MFI
same,phycoerythrin fluorescence (MFI),[3],17.5 MFI and 18 MFI
same,phycoerythrin fluorescence (MFI),[4],36 MFI and 39.5 MFI
same,phycoerythrin fluorescence (MFI),[5],51 MFI and 49 MFI
same,phycoerythrin fluorescence (MFI),[6],7 MFI and 6 MFI
same,phycoerythrin fluorescence (MFI),[7],7 MFI and 5 MFI
same,phycoerythrin fluorescence (MFI),[8],5 MFI
same,phycoerythrin fluorescence (MFI),[9],5 MFI and 4 MFI
same,phycoerythrin fluorescence (MFI),[10],5 MFI and 6 MFI
same,phycoerythrin fluorescence (MFI),[11],5 MFI and 6 MFI
same,phycoerythrin fluorescence (MFI),[12],6 MFI
same,phycoerythrin fluorescence (MFI),[13],6 MFI
same,phycoerythrin fluorescence (MFI),[14],5 MFI
